{"source": "paper PMC9243169", "key": {"LANTVATL peptide": {"target": "T1, LANTVATL peptide", "T1 chain": "LANTVATL", "test": "size-exclusion chromatography of in vitro assembled heavy chain/β2m/ligand complex", "details": "chain shown with the change; parent: est. 160; read off a plot"}, "[1]": {"target": "T2, N-myristoylated 4-mer lipopeptide Myr-GAAL", "T2 chain": "GAAL", "test": "size-exclusion chromatography of in vitro assembled heavy chain/β2m/ligand complex", "details": "chain shown with the change; parent: est. 160; read off a plot"}}, "data": [{"binder": "HLA-C∗14:02 heavy chain, ectodomain (soluble form) S9Y (protein) AGSHSMRYFYTSVSRPGRGEPRFIAVGYVDDTQFVRFDSDAASPRGEPRAPWVEQEGPEYWDRETQKYKRQAQTDRVSLRNLRGYYNQSEAGSHTLQWMFGCDLGPDGRLLRGYDQSAYDGKDYIALNEDLRSWTAADTAAQITQRKWEAAREAEQRRAYLEGTCVEWLRRYLENGKETLQRAEHPKTHVTHHPVSDHEATLRCWALGFYPAEITLTWQWDGEDQTQDTELVETRPAGDGTFQKWAAVVVPSGEEQRYTCHVQHEGLPEPLTLRWEP", "values": [{"measurement": "response", "setting": "LANTVATL peptide", "value": 180, "unit": "mAU"}, {"measurement": "response", "setting": "[1]", "value": 30, "unit": "mAU"}]}]}
